From the supplement of paper PMC7877785
± gives the uncertainty stated by the source.

Assay: self-splicing fitness, log relative to wild type (ln ratio); higher = more splicing; Tetrahymena group I intron in knt gene, E. coli kanamycin selection, DiMSum; sequences stand for … in CUCUCU…GGAGGGAAAAGUUAUCAGGCAUGCACCUGGUAGCUAGUCUUUAAACCAAUAGAUUGCAUCGGUUUAAAAGGCAAGACCGUCAAAUUGCGGGAAAGGGGUCAACAGCCGUUCAGUACCAAGUCUCAGGGGAAACUUUGAGAUGGCCUUGCAAAGGGUAUGGUAAUAAGCUGACGGACAUGGUCCUAACCACGCAGCCAAGUCCUAAGUCAACAGAUCUUCUGUUGAUAUGGAUGCAGUUCACAGACUAAAUGUCGGUCGGGGAAGAUGUAUUCUUCUCAUAAGAUAUAGUCGGACCUCUCCUUAAUGGGAGCUAGCGGAUGAAGUGAUGCAACACUGGAGCCGCUGGGAACUAAUUUGUAUGCGAAAGUAUAUUGAUUAGUUUUGGAGUACUCGUGGUCG
In short: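 Library with all eight P1ex-region intron nucleotides randomised, intron inside the knt kanamycin-resistance gene on pET-22b(+), in E. coli BL21(DE3). Cells grew overnight at 37°C or 30°C on LB agar with or without 25 μg/mL kanamycin (plus 100 μg/mL carbenicillin, 50 μM IPTG, 0.2% rhamnose), in six replicate transformations. Pooled colonies were amplicon-sequenced on Illumina HiSeq 2500. DiMSum fitness is the error-weighted combination of wild-type-normalised replicate fold changes, kanamycin versus none.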

Row | Sequence | self-splicing fitness (ln) (30 °C) | self-splicing fitness (ln) (37 °C)
1 | UAUAAGCAAUAUUACGCCCU | -1.15 ± 0.16 | 0.38 ± 0.16
2 | UAUAAGCAAUAUUACGCUCG | -0.59 ± 0.082 | -0.442 ± 0.11
3 | UAUAAGCAAUAUUACGGACC | -2.68 ± 0.16 | -2.07 ± 0.22
4 | UAUAAGCAAUAUUACGGACG | 0.119 ± 0.088 | 0.194 ± 0.11
5 | UAUAAGCAAUAUUACGGGGA | -1.81 ± 0.19 | -1.91 ± 0.23
6 | UAUAAGCAAUAUUACGUAAG | -2.45 ± 0.15 | -1.08 ± 0.16
7 | UAUAAGCAAUAUUACGUCGU | -2.37 ± 0.12 | -1.69 ± 0.17
8 | UAUAAGCAAUAUUACGUCUG | -0.517 ± 0.081 | 0.316 ± 0.098
9 | UAUAAGCAAUAUUACGUCUU | -1 ± 0.085 | -0.554 ± 0.1
10 | UAUAAGCAAUAUUACGUUGA | -3.52 ± 0.22 | -1.25 ± 0.12
11 | UAUAAGCAAUAUUACGUUUA | -1.03 ± 0.1 | -0.548 ± 0.11
12 | UAUAAGCAAUAUUACGUUUU | -3.44 ± 0.23 | -1.85 ± 0.15
13 | UAUCAGCAAUAUUACGAAUU | -0.95 ± 0.076 | 0.113 ± 0.09
14 | UAUCAGCAAUAUUACGAGCC | -3.24 ± 0.34 | -2.33 ± 0.3
15 | UAUCAGCAAUAUUACGAGGA | -0.877 ± 0.13 | -1.39 ± 0.14
16 | UAUCAGCAAUAUUACGAGGU | -2.73 ± 0.28 | -3.78 ± 0.37
17 | UAUCAGCAAUAUUACGAGUA | -0.337 ± 0.079 | -0.301 ± 0.088
18 | UAUCAGCAAUAUUACGAUGG | -0.913 ± 0.062 | 0.0535 ± 0.083
19 | UAUCAGCAAUAUUACGCAAC | -2.71 ± 0.2 | -1.52 ± 0.17
20 | UAUCAGCAAUAUUACGCGCC | -1.34 ± 0.18 | -0.193 ± 0.26
21 | UAUCAGCAAUAUUACGCGCU | -2.73 ± 0.21 | -1.76 ± 0.23
22 | UAUCAGCAAUAUUACGCGGU | -2.68 ± 0.13 | -2.97 ± 0.27
23 | UAUCAGCAAUAUUACGCUCA | -0.0488 ± 0.092 | 0.0773 ± 0.11
24 | UAUCAGCAAUAUUACGGACG | -0.108 ± 0.091 | 0.00709 ± 0.11
25 | UAUCAGCAAUAUUACGGAGC | -3.14 ± 0.17 | -3.71 ± 0.19

Row | Sequence | self-splicing fitness (ln) (30 °C) | self-splicing fitness (ln) (37 °C)
26 | UAUCAGCAAUAUUACGGCAA | -0.306 ± 0.12 | 0.808 ± 0.15
27 | UAUCAGCAAUAUUACGGGCG | 0.0109 ± 0.065 | 0.684 ± 0.088
28 | UAUCAGCAAUAUUACGGUCU | -0.719 ± 0.092 | -0.878 ± 0.11
29 | UAUCAGCAAUAUUACGUCCU | -1.44 ± 0.18 | -1.01 ± 0.2
30 | UAUCAGCAAUAUUACGUUAC | -4.75 ± 0.39 | -2.6 ± 0.21
31 | UAUGAGCAAUAUUACGAACU | – | -1.57 ± 0.26
32 | UAUGAGCAAUAUUACGAAGG | -3.5 ± 0.2 | -1.4 ± 0.22
33 | UAUGAGCAAUAUUACGAAUA | -2.94 ± 0.27 | -2.22 ± 0.21
34 | UAUGAGCAAUAUUACGACAA | -2.78 ± 0.29 | -0.6 ± 0.18
35 | UAUGAGCAAUAUUACGACAC | – | -1.97 ± 0.41
36 | UAUGAGCAAUAUUACGACAU | -3.523 ± 0.029 | -2.56 ± 0.042
37 | UAUGAGCAAUAUUACGAGAA | -2.28 ± 0.37 | -0.332 ± 0.24
38 | UAUGAGCAAUAUUACGCAAA | -2.74 ± 0.45 | –
39 | UAUGAGCAAUAUUACGCAAU | -3.54 ± 0.25 | -2.32 ± 0.18
40 | UAUGAGCAAUAUUACGCGAC | -2.82 ± 0.44 | -0.954 ± 0.39
41 | UAUGAGCAAUAUUACGCGCC | -4.05 ± 0.42 | –
42 | UAUGAGCAAUAUUACGCGGA | -2.39 ± 0.25 | -1.69 ± 0.24
43 | UAUGAGCAAUAUUACGCGUG | -1.88 ± 0.12 | -1.04 ± 0.11
44 | UAUGAGCAAUAUUACGGAUG | -2.09 ± 0.12 | -1.64 ± 0.17
45 | UAUGAGCAAUAUUACGGCGU | -3.11 ± 0.21 | -2.38 ± 0.29
46 | UAUGAGCAAUAUUACGGUCU | -2.78 ± 0.28 | -2.96 ± 0.4
47 | UAUGAGCAAUAUUACGUCGA | -3.12 ± 0.38 | -2.47 ± 0.36
48 | UAUGAGCAAUAUUACGUCUU | -2.71 ± 0.27 | -1.93 ± 0.23
49 | UAUGAGCAAUAUUACGUGUG | -2.41 ± 0.097 | -1.1 ± 0.085
